Reference: patent US20240270860A1

What was measured:
[1] = target: T1, …2RP; assay: peptide-array ELISA (CYS.S)
T1 sequence (peptide, 2 = Cys(ACM)): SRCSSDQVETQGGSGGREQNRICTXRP

[2] = target: T2, 2…2RP; assay: peptide-array ELISA (CYS.S)
T2 sequence (peptide, 2 = Cys(ACM)): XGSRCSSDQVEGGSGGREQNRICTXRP

[3] = target: T3, …2RP; assay: peptide-array ELISA (CYS.S); remark: listed apart in the source
T3 sequence (peptide, 2 = Cys(ACM)): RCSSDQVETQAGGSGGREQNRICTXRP

[4] = target: T4, LS2…2RP; assay: peptide-array ELISA (CYS.S)
T4 sequence (peptide, 2 = Cys(ACM)): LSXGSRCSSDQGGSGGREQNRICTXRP

[5] = target: T5, 2…2RPGW; assay: peptide-array ELISA (CYS.S)
T5 sequence (peptide, 2 = Cys(ACM)): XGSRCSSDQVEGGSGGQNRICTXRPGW

[6] = target: T6, S2…2RP; assay: peptide-array ELISA (CYS.S)
T6 sequence (peptide, 2 = Cys(ACM)): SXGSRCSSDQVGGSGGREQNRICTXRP

[7] = target: T7, …2RPG; assay: peptide-array ELISA (CYS.S)
T7 sequence (peptide, 2 = Cys(ACM)): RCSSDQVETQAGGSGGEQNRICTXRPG

[8] = target: T8, …2…2RPGW; assay: peptide-array ELISA (CYS.S)
T8 sequence (peptide, 2 = Cys(ACM)): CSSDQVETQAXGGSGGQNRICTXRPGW

[9] = target: T9, E2LS2…2RPGW; assay: peptide-array ELISA (CYS.S)
T9 sequence (peptide, 2 = Cys(ACM)): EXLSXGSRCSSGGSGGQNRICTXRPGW

[10] = target: T10, E2LS2…2RP; assay: peptide-array ELISA (CYS.S)
T10 sequence (peptide, 2 = Cys(ACM)): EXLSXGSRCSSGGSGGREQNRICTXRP

[11] = target: T11, …2RPGW; assay: peptide-array ELISA (CYS.S)
T11 sequence (peptide, 2 = Cys(ACM)): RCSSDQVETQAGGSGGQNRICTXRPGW

[12] = target: T12, VPE2LS2…2RPG; assay: peptide-array ELISA (CYS.S)
T12 sequence (peptide, 2 = Cys(ACM)): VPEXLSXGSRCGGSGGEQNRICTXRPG

[13] = target: T13, E2LS2…2RPG; assay: peptide-array ELISA (CYS.S)
T13 sequence (peptide, 2 = Cys(ACM)): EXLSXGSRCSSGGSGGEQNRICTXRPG

[14] = target: T14, 2LS2…2RPGW; assay: peptide-array ELISA (CYS.S)
T14 sequence (peptide, 2 = Cys(ACM)): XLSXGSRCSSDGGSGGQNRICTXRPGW

[15] = target: T15, …2RPG; assay: peptide-array ELISA (CYS.S); remark: listed apart in the source
T15 sequence (peptide, 2 = Cys(ACM)): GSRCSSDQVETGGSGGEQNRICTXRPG

[16] = target: T16, …2R; assay: peptide-array ELISA (CYS.S)
T16 sequence (peptide, 2 = Cys(ACM)): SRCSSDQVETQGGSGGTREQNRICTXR

[17] = target: T17, VPE2LS2…2RPGW; assay: peptide-array ELISA (CYS.S)
T17 sequence (peptide, 2 = Cys(ACM)): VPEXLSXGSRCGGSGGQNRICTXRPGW

[18] = target: T18, S2…2RPGW; assay: peptide-array ELISA (CYS.S)
T18 sequence (peptide, 2 = Cys(ACM)): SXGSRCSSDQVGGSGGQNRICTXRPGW

[19] = target: T19, LS2…2RPG; assay: peptide-array ELISA (CYS.S)
T19 sequence (peptide, 2 = Cys(ACM)): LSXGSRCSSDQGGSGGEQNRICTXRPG

[20] = target: T20, PE2LS2…2RP; assay: peptide-array ELISA (CYS.S)
T20 sequence (peptide, 2 = Cys(ACM)): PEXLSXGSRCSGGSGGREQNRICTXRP

[21] = target: T21, S2…2RPG; assay: peptide-array ELISA (CYS.S)
T21 sequence (peptide, 2 = Cys(ACM)): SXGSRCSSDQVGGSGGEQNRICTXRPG

[22] = target: T22, …2RPG; assay: peptide-array ELISA (CYS.S); remark: listed apart in the source
T22 sequence (peptide, 2 = Cys(ACM)): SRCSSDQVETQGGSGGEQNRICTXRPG

[23] = target: T23, LS2…2RPGW; assay: peptide-array ELISA (CYS.S)
T23 sequence (peptide, 2 = Cys(ACM)): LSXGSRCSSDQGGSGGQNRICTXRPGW

[24] = target: T24, PE2LS2…2RPGW; assay: peptide-array ELISA (CYS.S)
T24 sequence (peptide, 2 = Cys(ACM)): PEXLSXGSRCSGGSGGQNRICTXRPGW

[25] = target: T25, …2R; assay: peptide-array ELISA (CYS.S); remark: listed apart in the source
T25 sequence (peptide, 2 = Cys(ACM)): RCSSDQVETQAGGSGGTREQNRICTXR

[26] = target: T26, VPE2LS2…2RP; assay: peptide-array ELISA (CYS.S)
T26 sequence (peptide, 2 = Cys(ACM)): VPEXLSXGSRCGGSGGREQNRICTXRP

[27] = target: T27, …2RP; assay: peptide-array ELISA (CYS.S); remark: listed apart in the source
T27 sequence (peptide, 2 = Cys(ACM)): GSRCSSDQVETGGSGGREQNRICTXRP

[28] = target: T28, …2…2RP; assay: peptide-array ELISA (CYS.S)
T28 sequence (peptide, 2 = Cys(ACM)): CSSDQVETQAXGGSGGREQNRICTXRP

[29] = target: T29, …2…2RPG; assay: peptide-array ELISA (CYS.S)
T29 sequence (peptide, 2 = Cys(ACM)): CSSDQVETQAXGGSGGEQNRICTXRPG

[30] = target: T30, 2LS2…2RP; assay: peptide-array ELISA (CYS.S)
T30 sequence (peptide, 2 = Cys(ACM)): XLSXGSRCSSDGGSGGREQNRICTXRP

[31] = target: T31, 2LS2…2RPG; assay: peptide-array ELISA (CYS.S)
T31 sequence (peptide, 2 = Cys(ACM)): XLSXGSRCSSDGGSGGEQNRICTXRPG

[32] = target: T32, …2RPGW; assay: peptide-array ELISA (CYS.S); remark: listed apart in the source
T32 sequence (peptide, 2 = Cys(ACM)): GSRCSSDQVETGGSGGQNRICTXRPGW

[33] = target: T33, …2…2R; assay: peptide-array ELISA (CYS.S)
T33 sequence (peptide, 2 = Cys(ACM)): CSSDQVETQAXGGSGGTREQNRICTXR

[34] = target: T34, …2RPGW; assay: peptide-array ELISA (CYS.S); remark: listed apart in the source
T34 sequence (peptide, 2 = Cys(ACM)): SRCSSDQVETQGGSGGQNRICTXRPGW

[35] = target: T35, 2…2RPG; assay: peptide-array ELISA (CYS.S)
T35 sequence (peptide, 2 = Cys(ACM)): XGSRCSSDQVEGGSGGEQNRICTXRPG

[36] = target: T36, PE2LS2…2RPG; assay: peptide-array ELISA (CYS.S)
T36 sequence (peptide, 2 = Cys(ACM)): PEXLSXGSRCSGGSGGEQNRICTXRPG

[37] = target: T37, VPE2LS2…2RPGWY2AL; assay: peptide-array ELISA (CYS.S) [Continued]
T37 sequence (peptide, 2 = Cys(ACM)): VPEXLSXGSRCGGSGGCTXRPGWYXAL

[38] = target: T38, EGCRL2…2…; assay: peptide-array ELISA (CYS.S) [Continued]
T38 sequence (peptide, 2 = Cys(ACM)): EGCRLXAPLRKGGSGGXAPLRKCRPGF

B1: antagonistic TNFR2 antibody TNFRAB1 (antibody, V domains shown)
VH: EVQLQESGGGLVKPGGSLKLSCAASGFTFSSYVMSWVRQTPEKRLEWVATISSGGSYTYYPDSVKGRFTISRDNAKNTLYLQMSSLRSEDTAMYYCARQRVDGYSSYWYFDVWGAGTAVTVSS
VL: DIVLTQSPAIMSASPGEKVTITCSASSSVYYMYWFQQKPGTSPKLWIYSTSNLASGVPVRFSGSGSGTSYSLTISRMEAEDAATYYCQQRRNYPYTFGGGTKLEIKR
- Raw luminescence data [1]: 157
- Raw luminescence data [2]: 228
- Raw luminescence data [3]: 130
- Raw luminescence data [4]: 261
- Raw luminescence data [5]: 493
- Raw luminescence data [6]: 247
- Raw luminescence data [7]: 183
- Raw luminescence data [8]: 493
- Raw luminescence data [9]: 482
- Raw luminescence data [10]: 323
- Raw luminescence data [11]: 507
- Raw luminescence data [12]: 225
- Raw luminescence data [13]: 152
- Raw luminescence data [14]: 345
- Raw luminescence data [15]: 202
- Raw luminescence data [16]: 177
- Raw luminescence data [17]: 577
- Raw luminescence data [18]: 364
- Raw luminescence data [19]: 244
- Raw luminescence data [20]: 291
- Raw luminescence data [21]: 235
- Raw luminescence data [22]: 222
- Raw luminescence data [23]: 291
- Raw luminescence data [24]: 543
- Raw luminescence data [25]: 125
- Raw luminescence data [26]: 318
- Raw luminescence data [27]: 166
- Raw luminescence data [28]: 250
- Raw luminescence data [29]: 248
- Raw luminescence data [30]: 262
- Raw luminescence data [31]: 214
- Raw luminescence data [32]: 466
- Raw luminescence data [33]: 179
- Raw luminescence data [34]: 402
- Raw luminescence data [35]: 221
- Raw luminescence data [36]: 229
- Raw luminescence data [37]: 483
- Raw luminescence data [38]: 604
